Data taken from patent US20230220081A1 (published 2023).

Target: 21480B
Test: Octet

B1: IL2Rbeta (receptor)
chain: AVNGTSQFTCFYNSRANISCVWSQDGALQDTSCQVHAWPDRRRWNQTCELLPVSQASWACNLILGAPDSQKLTTVDIVTLRVLCREGVRWRVMAIQDFKPFENLRLMAPISLQVVHVETHRCNISWEISQASHYFERHLEFEARTLSPGHTWEEAPLLTLKQKQEWICLETLTPDTQYEFQVRVKPLQGEFTTWSPWSQPLAFRTKPAALGKD
Binder B1 has a Kd of 8.1 nM.
